Earlier results, collected in publication PMC3012091, “The Concentration of Soluble Extracellular Amyloid-β Protein in Acute Brain Slices from CRND8 Mice” (PLoS ONE, 2010).
Read-outs that look alike come from different tables or passages of the source.

Legend:
[1] = APP overexpressing mice
Excerpt: Constant turn-over of Aβ was included in some model calculations by adjusting the concentrations of Aβ at every location within the tissue after each iterative step of the model. […] E ... || The half-life of Aβ in the model is a more likely source of inaccuracy as the half-lives of Aβ species are less clear from the literature. There are few published half-life measurements from APP overexpressing mice.

[2] = human CNS
Excerpt: Constant turn-over of Aβ was included in some model calculations by adjusting the concentrations of Aβ at every location within the tissue after each iterative step of the model.

[3] = test system: long-term potentiation (LTP); details: 50–200 pM Aβ applied to acute hippocampal slices
Excerpt: At these concentrations Aβ affects long-term potentiation (LTP) when applied to acute hippocampal slices.

[4] = postmortem extraction of Aβ from brain tissue

Row | Substance | half-life ([1]; in vivo dialysis) | half-life of Aβ [2] | effect on LTP [3] | half-life [1, 4]
1 | Amyloid-β protein [Aβ] | 4 h | 8 to 9 h | both inhibition and enhancement | 
2 | Aβ1–40: amyloid-β protein 1–40, literature half-life only |  |  |  | ≤ 0.7 h
3 | Aβ1–42: endogenous soluble extracellular amyloid-β protein 1–42 of CRND8 mice, measured by human beta amyloid(1–42) ELISA |  |  |  | ≤ 1.7 h
